Data set [1] has as its system T1, His6-BldD full length (Streptomyces venezuelae), ORF:0f1775d8.
T1 sequence: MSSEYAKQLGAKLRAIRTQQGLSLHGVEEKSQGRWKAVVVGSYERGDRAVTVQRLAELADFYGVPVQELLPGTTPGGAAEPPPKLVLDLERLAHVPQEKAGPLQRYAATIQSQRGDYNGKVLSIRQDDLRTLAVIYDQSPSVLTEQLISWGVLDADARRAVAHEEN
Kind of data set: EMSA. Conditions: EMSA: 10 mM Tris pH 7.5, 1 mM EDTA, 5% glycerol, 10 mM NaCl, 1 mM MgCl2, 0.5 ug poly[d(I-C)] in 20 ul, 20 min room temperature; 5% PAGE in 0.5x TBE. (In general: Mobility shift assays separate free from complexed probe on a gel.)

For data set [2], the target named is His6-BldD-DBD (S. venezuelae BldD DNA-binding domain, residues 1-79) (Streptomyces venezuelae). Kind of data set: cross-linking; 10 μM protein, 1 mM DSS, no c-di-GMP; 100 mM NaH2PO4, 150 mM NaCl, pH 8, room temperature 30 min; SDS-PAGE, Coomassie.
Another data set concerns the target T2, BldD (Streptomyces venezuelae, UniProt F2RCL8).
T2 construct: gene SVEN_1089; CTD (residues 80-166), purified from Sf9 cells
T2 sequence (F2RCL8 80-166): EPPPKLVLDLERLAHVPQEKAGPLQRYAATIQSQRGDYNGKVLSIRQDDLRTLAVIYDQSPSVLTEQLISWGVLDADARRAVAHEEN
Kind of data set: fluorescence polarization. The class given is binding. In general terms: Fluorescence polarisation rises when a labelled molecule tumbles more slowly, as on binding a larger partner.

Regarding “GTTCGAAGATGTGGCCGACGGCGTCCACCCGGAGCGGCGCTCTCCGCCGACGTTCGCGCACCGCGACCGCGCACTCACGCTACGCTCACCAGGATTCCGTCCAGGACACCCGCACCGACACACCCGACAGCAGAACGGCTCAAGGCAACGC (double strand) [whiG promoter fragment, 151 bp]”, in data set [1], the binding entry is “binds”.

Consider “CTAGCCACAGACACCGCGAAAAGGGAAGAAAACCCGCTAAATGGGGCATAGCTTTCGATGAACGACAGAAGGCTCGCGTCGCTCTCCTCTGTACGCGCCCCCTCACGTAGAGTGCCGAAGGGTGCCGTCCGACCCGTAACTCTTTCGAGTGACCGTCG (double strand) [bldM promoter fragment, 158 bp]”, for which the binding entry in data set [1] is “binds”.

“His6-BldD-DBD (S. venezuelae BldD DNA-binding domain, residues 1-79) (domain or fragment)” registered a stoichiometry N in data set [2] of 2. At BldD, “2′-O-(6-[Fluoresceinyl]aminohexylcarbamoyl)-cyclic diguanosine monophosphate [2′-Fluo-AHC-c-di-GMP]” returned a Kd of 2500 ± 600 nM.

In general, stoichiometry N refers to the number of molecules, sites or subunits per partner or assembly. Broadly, the Kd is the equilibrium constant for the complex coming apart. The low end stands for a tighter complex, the high end for a looser complex.

These data come from paper PMC4151990, “Tetrameric c-di-GMP Mediates Effective Transcription Factor Dimerization to Control Streptomyces Development” (Cell, 2014).
